T1: CD134 expressed on the cell surface of HT1080_OX40 cells (human, UniProt P43489 29-277)
T1 sequence (looked up): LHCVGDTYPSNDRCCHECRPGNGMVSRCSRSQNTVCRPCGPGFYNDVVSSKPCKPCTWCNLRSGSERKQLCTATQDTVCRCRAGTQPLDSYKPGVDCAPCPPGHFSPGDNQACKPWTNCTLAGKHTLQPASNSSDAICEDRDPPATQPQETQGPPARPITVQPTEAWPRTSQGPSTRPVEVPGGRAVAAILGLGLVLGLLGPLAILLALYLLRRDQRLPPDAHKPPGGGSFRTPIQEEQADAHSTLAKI

T2: CD134 protein (His-tagged, Sino Biological Inc. 10481-H08H) (human, UniProt P43489 29-216)
T2 construct: bought protein coated on ELISA plates; also called OX40; TNFRSF4; not shown: His tag
T2 sequence (looked up): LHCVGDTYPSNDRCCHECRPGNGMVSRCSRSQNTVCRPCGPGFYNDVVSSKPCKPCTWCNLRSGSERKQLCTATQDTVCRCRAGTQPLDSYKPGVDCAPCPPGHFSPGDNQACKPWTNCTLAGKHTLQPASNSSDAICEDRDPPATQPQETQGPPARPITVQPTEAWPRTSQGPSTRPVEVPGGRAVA

T3: CD27 expressed on the cell surface (HT1080_CD27 cells) (human, UniProt P26842 20-260)
T3 construct: whole, on cells; also called K562_CD27
T3 sequence (looked up): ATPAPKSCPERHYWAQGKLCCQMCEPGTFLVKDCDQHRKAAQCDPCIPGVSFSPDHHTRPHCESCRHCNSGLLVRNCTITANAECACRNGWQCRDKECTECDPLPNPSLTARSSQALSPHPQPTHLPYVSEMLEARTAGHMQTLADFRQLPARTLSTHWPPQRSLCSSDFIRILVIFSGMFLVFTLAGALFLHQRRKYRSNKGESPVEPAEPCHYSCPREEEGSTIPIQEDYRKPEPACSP

T4: CD27 protein (His-tagged, Sino Biological Inc. 10039-H08B1) (human, UniProt P26842 20-192)
T4 construct: bought; coated onto ELISA plates; also called human CD27; recombinant protein; not shown: His tag
T4 sequence (looked up): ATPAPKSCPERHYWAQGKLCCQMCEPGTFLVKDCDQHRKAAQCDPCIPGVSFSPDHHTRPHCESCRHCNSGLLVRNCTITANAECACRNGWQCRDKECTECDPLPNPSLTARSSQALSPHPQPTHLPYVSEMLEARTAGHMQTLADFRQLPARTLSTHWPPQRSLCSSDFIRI


Assays:
[1] = target: T1, CD134 expressed on the cell surface of …; assay: cell-based or functional assay
[2] = target: T1, CD134 expressed on the cell surface of …; assay: HT1080_OX40 cells, imaging
[3] = target: T2, CD134 protein (His-tagged, Sino …); assay: ELISA, coated His-tagged CD134
[4] = target: T3, CD27 expressed on the cell surface …; assay: cellular binding assay, HT1080_CD27 cells
[5] = target: T3, CD27 expressed on the cell surface …; assay: cell-based or functional assay
[6] = target: T4, CD27 protein (His-tagged, Sino …); assay: ELISA on coated His-tagged CD27
Further: test concentration or dose not given here.

Row | Binder | Functional assay Cross-linked by F(ab′)2 fragment IL-8 [1] | Functional assay IL-8 [1] | Cellular binding assay [RFU] [2] | ELISA [abs. corr.] [3] | Cellular binding assay [RFU] [4] | IL-8, cross-linked by F(ab')2 fragment [abs. corr.] [5] | IL-8 [abs. corr.] [5] | ELISA [abs. corr.] [6]
1 | P018.S.11.A.G02 (antibody, V domains shown, V regions on human Ig constant parts; also called AB134_42) VH: QSVEESGGRLVTPGTPLTLTCTVSGFSLSGYDMSWVRQAPGKGLEWIGYIYGGNTYYANWAKGRFTISKTSTTVDLKMTSPTTEDTATYFCTRVGAGYSGVWAYFNLWGPGTLVTVSS VL: AQVLTQTPSSVSAAVGGTVTINCQSSQSVDSDNYLAWYQQKPGQPPKLLIYDTSKLASGVPSRFTGSGSGTQFTLTISGVQSDDAATYYCQGTYYNAGWYFAFGGGTEVVVK | 2.06 abs. corr. | 0.27 abs. corr. | 357 RFU | 1.07 abs. corr. | – | – | – | –
2 | P018.S.02.A.F01 (antibody, V domains shown, V regions on human Ig constant parts; also called AB134_1) VH: QSVEESGGRLVTPGTPLTLTCTVSGFSLSSYAMSWVRQAPGKGLEWIGIISSSGVTYYASWAKGRFTISKTSTTVDLRITGPTTEDTATYFCARDPGYSTGWDYFFRLWGQGTLVTVSS VL: AIKMTQTPASVSAAVGGTVSINCQASEDIESYLAWYQQKPGQPPKLLIYDASDLPSGVPSRFKGSGSGKQFTLTISGVQSDDAATYYCQHGAYTSSSDFFYAFGGGTEVVVK | 2.34 abs. corr. | 0.115 abs. corr. | 498 RFU | 2.69 abs. corr. | – | – | – | –
3 | P018.S.11.A.D04 (antibody, V domains shown, V regions on human Ig constant parts; also called AB134_31) VH: QSVEESGGRLVTPGTPLTLTCTVSGFSLNSYDMSWVRQAPGKGLEWIGFISASGSIYFASWAKGRFTISKTSTTVDLKITSPTTEDTATYFCASDSYGWAYVYYFNLWGPGTLVTVSS VL: AVVLTQTPASVSPAVGGTVTINCRASEDIGSYLGWYQQKPGQPPKLLMHDASDLASGVPSRFSGSGSGTEFTLTISGVQSDDAATYYCQSAWYSSNTDKMAFGGGTEVVVK | 2.04 abs. corr. | 0.38 abs. corr. | 530 RFU | 2.07 abs. corr. | – | – | – | –
4 | P018.S.12.A.G04 (antibody, V domains shown, V regions on human Ig constant parts; also called AB134_86) VH: QSVEESGGRLVTPGTPLTLTCTVSGFSLNSYDMSWVRQAPGKGLEWIGFISAIDNTYYASWAKGRFTISKTSTTVDLKITSPTTEDTATYFCASDSYGWAYVYYFNLWGPGTLVTVSS VL: AVVLTQTPASVSATVGGTVTINCRASEDIGSYLGWYQQKPGQPPKLLIHDASDLASGVPSRFSGSGSGTEFTLTISGVQSDDAATYYCQSAWYSSDSDKMAFGGGTEVVVK | 1.99 abs. corr. | 0.407 abs. corr. | 534 RFU | 2.08 abs. corr. | – | – | – | –
5 | P018.S.12.A.H05 (antibody, V domains shown, V regions on human Ig constant parts; also called AB134_91) VH: QSLEESGGDLVKPGASLTLTCTASGFSFDIDYYMCWVRQAPGKGLEWIACIYAGSSGSTYYASWAKGRFTISKTSSTTVTLQMPSLTAADTATYFCARHYAGYAGDAYATDYYFNLWGRGTLVTVSS VL: DIVMTQTPSSVSATVGDTVTINCQASQSVSNFLAWYQQKPGQPPKPLIYGASNLESGVPSRFRGSGSGTEFTLTISGMKAEDAATYYCQSGYYSATFGAGTKVEIK | 2.19 abs. corr. | 0.348 abs. corr. | 527 RFU | 2.37 abs. corr. | – | – | – | –
6 | P018.S.11.A.F05 (antibody, V domains shown, V regions on human Ig constant parts; also called AB134_41) VH: QSLEESGGRLVTPGTPLTLTCTVSGFSLSRYHMSWVRQAPGKGLEYIGYIHTDDTNWYASWAKGRFTISKTSTTVDLKITSPTTEDTATYFCARVSSVGGYYFDLWGQGTLVTVSS VL: DVVMTQTPASVSEPVGGTVTIKCQASEDIYNLLAWYQQKPGQPPKLLIYAASTLASGVPSRFKGSGSGTQFTLTISDLESADAATYYCQNNYLISSYGVGFGGGTEVVVK | 2.15 abs. corr. | 0.33 abs. corr. | 396 RFU | 1.67 abs. corr. | – | – | – | –
7 | P018.S.12.A.C02 (antibody, V domains shown, V regions on human Ig constant parts; also called AB134_62) VH: QEQLVESGGGLVQPEGSLTLTCTASGFSFSNNAMCWVRQAPGKGLEWIACIYDGSSGSTYYATWAKGRFTISKTSSTTVTLQMTSLTAADTATYFCARAYGGYTVYDYAFNLWGPGTLVTVSS VL: DVVMTQTPASVSEPVGGTVTIKCQASQSIGSDLAWYQQKPGQPPKLLIYYTTNLETGVSSRFKGSRSGTEYALTISDLESADAATYYCQYGVRSTYSFGGGTEVVVK | 2.14 abs. corr. | 0.936 abs. corr. | 571 RFU | 2.05 abs. corr. | – | – | – | –
8 | P018.S.12.A.A01 (antibody, V domains shown, V regions on human Ig constant parts; also called AB134_50) VH: QSVEESGGRLVTPGTPLTLTCTVSGFSLSSYAMIWVRQAPGKGLEYIGYISYDGSTYYASWVKGRFTISKTSTTVDLKMTSLTTEDTATYFCARARIDDGYGNLWGQGTLVTVSS VL: DVVMTQTPASVSEPVGGTVTIKCQASESISNYLAWYQQKPGQPPKLLIYAASYLASGVPSRFRGSGSGTEFTLTISDLESADAATYYCQCTYVASTYVGTFGGGTEVVVK | 2.14 abs. corr. | 0.071 abs. corr. | 600 RFU | 2.41 abs. corr. | – | – | – | –
9 | P018.S.11.A.F04 (antibody, V domains shown, V regions on human Ig constant parts; also called AB134_40) VH: QSVEESGGRLVTPGTPLTLTCTVSGFSLSRYTMGWVRQAPGKGLEYIGIIYGDDNTYYASWAKGRLTISKTSSTTVDLKITSPTTEDTATYFCASCAPIYYNTFSFNLWGQGTLVTVSA VL: AYDMTQTPASVEVAVGGTVTIKCQASQTIGGSLSWYQQKPGQPPKLLIYAAATLASGVPSRFKGSGSGTQFTLTISGVESDDAATYYCQQHYTGDNVNNPFGGGTEVVVK | 2.11 abs. corr. | 0.568 abs. corr. | 486 RFU | 2.25 abs. corr. | – | – | – | –
10 | P018.S.04.A.B04 (antibody, V domains shown, V regions on human Ig constant parts; also called AB134_6) VH: QSLEESGGRLVTPGTPLTLTCTASGIDLNNYAMSWVRQAPGKGLEWIGIISGAGYTYYTTWAKGRFTISKTSTTVDLKITSPTTEDTATYFCARIYDSYGYAYVPYYDMDLWGPGTLVTVSS VL: AAVLTQTPSPVSTAVGGTVTINCQSSQSVFMNNYLSWYQQKPGQPPKLLIYDASTLASRVPDRFSGSGSGTQFTLTISGVQSDDAAAYYCLGGYDDDSATTFGGGTEVVVE | 2.11 abs. corr. | 1.99 abs. corr. | 331 RFU | 3.21 abs. corr. | – | – | – | –
11 | P018.S.12.A.C03 (antibody, V domains shown, V regions on human Ig constant parts; also called AB134_63) VH: QEQLKESGGDLVTPGTPLTLTCTVSGFSLSSYAMAWVRQAPGKGLEYIGFIDTDGSAYYASWAKGRFTISRTSTTVDLKITSPTTEDTATYFCAGDSYGYAGFVYFNLWGPGTLVTVSS VL: DVVMTQTPASVSEPVGGTVTIKCQASQNIYSSLAWYQQKPGQPPKLLIYDASDLASGVPSRFKGSGSGTQFTLTISDLESDDAATYYCQCSYYGVDYVGGFGGGTEVVVK | 2.11 abs. corr. | 0.238 abs. corr. | 483 RFU | 1.96 abs. corr. | – | – | – | –
12 | P018.S.12.A.B01 (antibody, V domains shown, V regions on human Ig constant parts; also called AB134_56) VH: QEQLVESGGGLVQPEGSLTLTCKASGFDFSYNSMCWVRQAPGKGLEWITCIYNGDGSTWYASWAKGRFTISKTSSTTVTLQMTSLTAADTATYFCTRDFGLWGPGTLVTVSS VL: ALVMTQTPSSTSEPVGGTVTINCQASESVANHKQLSWYQQKPGQPPKVLIYYASTLASGVPSRFKGSGSGTQFTLTISDVVSDDAATYYCSGYKSISTDGNAFGGGTEVVVK | 2.11 abs. corr. | 0.396 abs. corr. | 607 RFU | 2.34 abs. corr. | – | – | – | –
13 | P018.S.03.A.G06 (antibody, V domains shown, V regions on human Ig constant parts; also called AB27_59) VH: QSLEESGGDLVKPGASLTLTCTASGFSFSRNNYMCWVRQAPGKGLESIACIHDGNSVGIYYTTWAKGRFTISKTSSTTVTLQMTSLTVADTATYFCARMSYTNDWDPIWGPGTLVTVSS VL: DIVMTQTPASVEAAVGGTVTIDCQASENIYSLLAWYQQKPGQPPKVLISLASNLASGVPSRFKGSGSGTQFSLTISDLESADAATYYCQGYYYSSSTSYENAFGGGTEVVVS | – | – | – | – | 302 RFU | 1.36 abs. corr. | 0.56 abs. corr. | 3.4 abs. corr.
14 | P018.S.04.A.E04 (antibody, V domains shown, V regions on human Ig constant parts; also called AB27_75) VH: QSVEESGGRLVTPGTPLTLTCTVSGFSLSTYAMNWIRQAPGKGLEWIGTITTGGSTFFASWAKGRFTISKTSTTVDLKITSPTTEDTATYFCARGGDTGYGFSYFDLWGQGTLVTVSS VL: AVVLTQTPASVSEPVGGTVTIKCQASENIYSSLAWYQQKPGQPPKLLIYDASTLASGVPSRFKGSGSGTEYTLTISGVQSDDAATYYCQQGYSTSNLVNPFGGGTELVVN | – | – | – | – | 283 RFU | 1.34 abs. corr. | 0.641 abs. corr. | 3.38 abs. corr.
